Measured values as given in doi:10.1101/343368.

What was measured:
Assay in all cases: GO/AuNP colorimetric aptasensor
arachin (Ara h 1) = molecular target: T1, arachin (Ara h 1) (peanut, UniProt P43238 85-626)
T1 sequence: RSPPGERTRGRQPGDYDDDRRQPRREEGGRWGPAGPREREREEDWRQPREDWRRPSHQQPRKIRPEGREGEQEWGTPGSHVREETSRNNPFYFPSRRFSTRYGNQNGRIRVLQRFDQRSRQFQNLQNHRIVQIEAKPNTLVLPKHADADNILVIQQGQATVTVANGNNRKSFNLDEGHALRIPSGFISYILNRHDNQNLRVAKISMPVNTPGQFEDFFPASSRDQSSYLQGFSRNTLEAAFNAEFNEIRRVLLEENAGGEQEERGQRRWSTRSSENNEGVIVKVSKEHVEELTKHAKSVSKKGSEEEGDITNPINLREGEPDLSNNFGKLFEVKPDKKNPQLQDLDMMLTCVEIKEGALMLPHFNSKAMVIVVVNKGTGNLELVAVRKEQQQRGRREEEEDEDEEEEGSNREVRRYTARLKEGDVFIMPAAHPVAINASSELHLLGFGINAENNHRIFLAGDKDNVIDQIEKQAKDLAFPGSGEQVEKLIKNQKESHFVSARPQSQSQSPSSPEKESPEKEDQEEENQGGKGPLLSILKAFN

tropomyosin (Pen a 1) = tropomyosin (Pen a 1) (shrimp (species ), UniProt Q3Y8M6 1-284)
Chain of tropomyosin (Pen a 1) (Q3Y8M6 whole entry): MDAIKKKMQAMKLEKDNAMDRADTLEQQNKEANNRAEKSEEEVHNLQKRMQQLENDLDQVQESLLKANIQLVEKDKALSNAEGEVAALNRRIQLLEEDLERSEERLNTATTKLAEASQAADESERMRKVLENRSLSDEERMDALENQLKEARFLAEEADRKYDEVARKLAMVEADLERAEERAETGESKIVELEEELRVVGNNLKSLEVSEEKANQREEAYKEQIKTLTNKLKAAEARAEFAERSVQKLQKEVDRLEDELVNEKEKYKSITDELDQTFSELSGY

beta-lactoglobulin = molecular target: T2, beta-lactoglobulin (milk (species ), UniProt P02754 17-178)
T2 sequence: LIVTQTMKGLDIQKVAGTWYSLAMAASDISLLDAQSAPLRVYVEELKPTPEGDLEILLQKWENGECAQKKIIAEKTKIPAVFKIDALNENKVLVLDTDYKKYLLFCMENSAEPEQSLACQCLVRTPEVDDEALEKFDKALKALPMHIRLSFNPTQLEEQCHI

B1: arachin (peanut) aptamer (ssDNA)
DNA: TCGCACATTCCGCTTCTACCGGGGGGGTCGAGCGAGTGAGCGAATCTGTGGGTGGGCCGTAAGTCCGTGTGTGCGAA
modifications: biotin (position not given)
**Q.** Does B1 bind (arachin (Ara h 1))?
**A.** binds

B2: tropomyosin (shrimp) aptamer (ssDNA)
DNA: TACTAACGGTACAAGCTACCAGGCCGCCAACGTTGACCTAGAAGCACTGCCAGACCCGAACGTTGACCTAGAAGC
modifications: biotin (position not given)
**Q.** Does B2 bind (tropomyosin (Pen a 1))?
**A.** binds

B3: beta-lactoglobulin (milk) aptamer (ssDNA)
DNA: ATACCAGCTTATTCAATTCGACGATCGGACCGCAGTACCCACCCACCAGCCCCAACATCATGCCCATCCGTGTGTGAGATAGTAAGTGCAATCT
modifications: biotin (position not given)
**Q.** Does B3 bind (beta-lactoglobulin)?
**A.** binds
